Reference: patent US20260242485A1 (LEPU BIOPHARMA, published 2026)
Substitutions are numbered along the chain they refer to.

Experiments:
[1] = molecular target: T1, human CD16A-158F expressed on CHO-K1 cells (human, UniProt P08637 17-254); test: flow cytometry, CHO-K1-hCD16A-158F cells, geometric mean
T1 construct: whole, on cells
Text: (§1) The purpose of the assay was to evaluate the binding of BsAb to each of the hFcγRs.

[2] = molecular target: T2, human CD16A-158V expressed on CHO-K1 cells (human, UniProt P08637 17-254); test: flow cytometry, CHO-K1-hCD16A-158V cells, geometric mean
T2 construct: whole, on cells; also called hCD16A-158V; CHO-K1-hCD16A-158V
T2 sequence (P08637 17-254 F176V): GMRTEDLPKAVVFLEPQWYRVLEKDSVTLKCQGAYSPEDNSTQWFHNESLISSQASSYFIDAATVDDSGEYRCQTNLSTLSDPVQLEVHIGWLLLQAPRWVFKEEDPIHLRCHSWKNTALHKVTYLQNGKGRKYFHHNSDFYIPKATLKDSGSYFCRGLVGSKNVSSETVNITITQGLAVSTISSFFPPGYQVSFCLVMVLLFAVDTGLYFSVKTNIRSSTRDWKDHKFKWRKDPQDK
Text: as §1

[3] = molecular target: T2, human CD16A-158V expressed on CHO-K1 …; test: as above; remark: listed apart in the source
Experimental: (§2) In order to evaluate the binding activity of the chimeric mAbs to human CD16A expressed on cells, cell-based binding assay was employed as followed. […] The antibody dilutions were incubated with 1×10⁵ indicated cells in the 96-well microplate for one hour at 4° C. The antibodies binding to the antigen on the cell surface were detected with PE fluorophore-conjugated anti-human IgG Fc secondary antibodies (ThermoFisher scientific, Cat. No. 12-4998-82) at a dilution rate of 1:1000. Cells were analyzed by flow cytometer LSRFortessa Cell Analyzer (BD Biosciences). Data were analyzed with Flowjo 10.0 software. The graph and statistics analysis were generated with four-parameter nonlinear regression curve fit in Graphpad Prism 9 software.
(§3) The assay was performed following the protocol described above.

[4] = molecular target: T2, human CD16A-158V expressed on CHO-K1 …; test: flow cytometry, CHO-K1-hCD16A-158V cells, Alexa Fluor 647 anti-human IgG Fc, geometric mean
Experimental: as §2
(§4) The assay was performed following the protocol described above. The antibodies binding to the antigen on the cell surface were detected with Alexa Fluor® 647 AffiniPure™ F(ab′)₂ fragment goat anti-human IgG Fcγ fragment specific secondary antibody (Jackson Immuno Research, Cat. No. 109-606-098) at a dilution rate of 1:2000.

[5] = molecular target: T1, human CD16A-158F expressed on CHO-K1 …; test: flow cytometry, CHO-K1-hCD16A-158F cells, Alexa Fluor 647 anti-human IgG Fc, geometric mean
Experimental: as §2, §4

[6] = molecular target: T3, cynomolgus CD16 expressed on CHO-K1 cells (cynomolgus, UniProt Q8SPW2 17-254); test: flow cytometry, CHO-K1-cyno CD16 cells, Alexa Fluor 647 anti-human IgG Fc, geometric mean
T3 construct: whole, on cells; also called cyno CD16; CHO-K1-cynoCD16
T3 sequence (Q8SPW2 17-254): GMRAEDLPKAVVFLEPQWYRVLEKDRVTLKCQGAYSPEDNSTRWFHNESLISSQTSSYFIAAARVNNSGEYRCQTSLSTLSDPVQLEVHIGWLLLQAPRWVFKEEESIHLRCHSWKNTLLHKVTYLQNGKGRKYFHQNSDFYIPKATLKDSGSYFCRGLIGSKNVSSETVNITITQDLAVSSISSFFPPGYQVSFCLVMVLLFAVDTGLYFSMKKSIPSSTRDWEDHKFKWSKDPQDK
Experimental: as §2, §4

[7] = molecular target: T1, human CD16A-158F expressed on CHO-K1 …; test: flow cytometry, CHO-K1-hCD16A-158F cells, geometric mean; remark: listed apart in the source
Experimental: as §2, §3

[8] = molecular target: T3, cynomolgus CD16 expressed on CHO-K1 …; test: flow cytometry, CHO-K1-cyno CD16 cells, geometric mean
Experimental: as §2, §3

[9] = molecular target: T4, human GPC3 on HepG2 cells (human, UniProt P51654 25-554); test: flow cytometry, HepG2 cells (GPC3 positive), geometric mean
T4 construct: whole, on cells; also called GPC3-positive HepG2 cells
T4 sequence (P51654 25-554 limits assumed): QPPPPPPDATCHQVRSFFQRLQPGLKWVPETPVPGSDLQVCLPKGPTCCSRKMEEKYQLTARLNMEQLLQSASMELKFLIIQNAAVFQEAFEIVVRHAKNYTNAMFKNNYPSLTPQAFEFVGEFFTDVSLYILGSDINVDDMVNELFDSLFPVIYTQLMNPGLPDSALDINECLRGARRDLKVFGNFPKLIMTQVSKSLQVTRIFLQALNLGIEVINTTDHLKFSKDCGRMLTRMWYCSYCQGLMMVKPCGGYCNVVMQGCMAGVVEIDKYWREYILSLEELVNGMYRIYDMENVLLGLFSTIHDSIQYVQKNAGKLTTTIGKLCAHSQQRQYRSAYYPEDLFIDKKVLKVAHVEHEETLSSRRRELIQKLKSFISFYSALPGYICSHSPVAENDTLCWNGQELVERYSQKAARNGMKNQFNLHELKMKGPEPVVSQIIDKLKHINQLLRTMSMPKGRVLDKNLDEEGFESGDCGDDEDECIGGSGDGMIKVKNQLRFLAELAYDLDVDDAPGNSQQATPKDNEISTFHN

[10] = molecular target: T1, human CD16A-158F expressed on CHO-K1 …; test: flow cytometry, CHO-K1-hCD16A-158F cells, geometric mean; remark: listed apart in the source

T1 sequence (P08637 17-254): as the sequence (P08637 17-254 F176V) above, with V160F counted along it

B1: CCR8-hIgG1 mAb (antibody)
VH: not shown
VL: DIVMTQSPLSLPVTPGEPASISCRSSKSLLHSNANTYLYWYLQKPGQSPQLLIYRMSNLASGVPDRFSGSGSGTAFTLKISRVEAEDVGVYYCMQHLEYPFTFGGGTKLEIKRTVAAPSVFIFPPSDEQLKSGTASVVCLLNNFYPREAKVQWKVDNALQSGNSQESVTEQDSKDSTYSLSSTLTLSKADYEKHKVYACEVTHQGLSSPVTKSFNRGEC
notes: Wildtype human IgG1; also called anti-hCCR8 monoclonal antibody with wildtype Fc hIgG1
EC50 [1]: 20000 pM | EC50 [2]: 5200 pM

B2: CCR8-45H6E8-hIgG1LALAPG (bispecific antibody)
heavy: EVQLVESGGGLVQPGGSLRLSCAASGFSFNTYVMNWVRQAPGKGLEWVARIRTKSNNYATFYVDSVKDRFTISRDDSKNSLYLQMNSLKTEDTAVYYCVSGTITRLGAGLDYWGQGTLVTVSSASTKGPSVFPLAPSSKSTSGGTAALGCLVKDYFPEPVTVSWNSGALTSGVHTFPAVLQSSGLYSLSSVVTVPSSSLGTQTYICNVNHKPSNTKVDKKVEPKSCDKTHTCPPCPAPEAAGGPSVFLFPPKPKDTLMISRTPEVTCVVVDVSHEDPEVKFNWYVDGVEVHNAKTKPREEQYNSTYRVVSVLTVLHQDWLNGKEYKCKVSNKALGAPIEKTISKAKGQPREPQVYTLPPSREEMTKNQVSLTCLVKGFYPSDIAVEWESNGQPENNYKTTPPVLDSDGSFFLYSKLTVDKSRWQQGNVFSCSVMHEALHNHYTQKSLSLSPGKGGGGSGGGGSGGGGSEVQLQQSGAELVRSGASVKLSCTASGFNIKDYYMQWVKQRPEQGLEWIGWIDPENGDTEYAPKFQGKATMTADTSSNTAYLQLSSLTSEDTAVYYCTTGGNYVDWGQGTTLTVSSGGGGSGGGGSGGGGSDIVMTQSQKFMSTSVGDRVSITCKASQNVGTAVAWYQQKPGQSPKLLIYSASNRYTGVPDRFTGSGSGTDFTLTISNMQSEDLADYFCQQYSSYPLLTFGAGTNLELK
light: B1 VL
notes: to be checked; also called CCR8-45H6E8-hIgG1LALAPG BsAb; CCR8-45H6E8 LALAPG BsAb
EC50 [1]: 290 pM | EC50 [2]: 570 pM

B3: 45H6E8-z21 (antibody, human IgG1, V domains shown)
VH: QVQLVQSGAEVKKPGASVKVSCKVSGYTLTDYYMQWVRQAPGKGLEWMGWIDPENGDTEYAPKFQGRVTMTADTSTDTAYMELSSLRSEDTAVYYCTTGGNYVDWGQGTTVTVSS
VL: DIQMTQSPSFLSASVGDRVTITCKASQNVGTAVAWYQQKPGKAPKLLIYSASNRYTGVPDRFSGSGSGTDFTLTISSLQPEDFATYFCQQYSSYPLLTFGQGTRLEIK
notes: Human IgG1 LALAPG constant region; also called HU-VH1-8 / HU-VL1-3
EC50 (read off the curve) [3]: ~400 pM | EC50 (read off the curve) [4]: ~400 pM | EC50 (read off the curve) [5]: ~400 pM | EC50 (read off the curve) [6]: ~1000 pM | EC50 (read off the curve) [7]: ~400 pM | EC50 (read off the curve) [8]: ~700 pM

B4: 45H6E8-z21p1 (antibody, V domains shown)
VH: B3 VH with N55Q
VL: B3 VL
notes: PTM-removed version of z21
binding result [9]: no binding (tested: 100 nM)

B5: GPC3-hIgG1DE (antibody)
chain 1: not shown
chain 2: DIVMTQTPLSLSVTPGQPASISCRSSQSLVHSNGNTYLQWYLQKPGQSPQLLIYKVSNRFSGVPDRFSGSGSGTDFTLKISRVEAEDVGVYYCFQSIHVPYTFGGGTKLEIKRTVAAPSVFIFPPSDEQLKSGTASVVCLLNNFYPREAKVQWKVDNALQSGNSQESVTEQDSKDSTYSLSSTLTLSKADYEKHKVYACEVTHQGLSSPVTKSFNRGEC
EC50 (read off the curve) [9]: ~300 pM

B6: GPC3-hIgG1 (antibody)
heavy: not shown
light: B5 chain 2
notes: also called GPC3-hIgG1 mAb with wild-type Fc region
binding result [10]: no binding (tested: 100 nM) | EC50 (read off the curve) [9]: ~300 pM
